# From the supplement of paper PMC10567573
# B1: LPCAT4 (parent)
# chain: HDPLYGKLFSTYLRPPHTSRGTSQ
# B2: DCAF4 (parent)
# chain: TTKCVRQYEGHVNEYAYLPLHVHE
# Variants of: B1
# Assay: protein stability index of a GFP-peptide fusion (GPS, HEK-293T) (PSI 1-6); higher = more stable
# Settings: c terminus: a fixed tail appended
# 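Note: lentivirally expressed fusions sorted by FACS into six bins by GFP to DsRed ratio, PSI derived from sequencing read proportions per bin multiplied by bin number.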
row,Variant,protein stability index
1,MDPLYGKLFSTYLRPPHTSRGTSQ [H1M],2.98
2,LDPLYGKLFSTYLRPPHTSRGTSQ [H1L],4.22
3,CDPLYGKLFSTYLRPPHTSRGTSQ [H1C],3.66
4,SDPLYGKLFSTYLRPPHTSRGTSQ [H1S],3.68
5,NDPLYGKLFSTYLRPPHTSRGTSQ [H1N],3.2
6,WDPLYGKLFSTYLRPPHTSRGTSQ [H1W],2.38
7,FDPLYGKLFSTYLRPPHTSRGTSQ [H1F],2.12
8,PDPLYGKLFSTYLRPPHTSRGTSQ [H1P],3.1
9,GDPLYGKLFSTYLRPPHTSRGTSQ [H1G],2.88
10,IDPLYGKLFSTYLRPPHTSRGTSQ [H1I],3.4
11,QDPLYGKLFSTYLRPPHTSRGTSQ [H1Q],3.18
12,EDPLYGKLFSTYLRPPHTSRGTSQ [H1E],2.83
13,TDPLYGKLFSTYLRPPHTSRGTSQ [H1T],3.96
14,ADPLYGKLFSTYLRPPHTSRGTSQ [H1A],4.01
15,DDPLYGKLFSTYLRPPHTSRGTSQ [H1D],3.52
16,VDPLYGKLFSTYLRPPHTSRGTSQ [H1V],4
17,RDPLYGKLFSTYLRPPHTSRGTSQ [H1R],3.09
18,KDPLYGKLFSTYLRPPHTSRGTSQ [H1K],3.32
19,HEPLYGKLFSTYLRPPHTSRGTSQ [D2E],2.74
20,HIPLYGKLFSTYLRPPHTSRGTSQ [D2I],1.96
21,HFPLYGKLFSTYLRPPHTSRGTSQ [D2F],2.27
22,HKPLYGKLFSTYLRPPHTSRGTSQ [D2K],2.63
23,HVPLYGKLFSTYLRPPHTSRGTSQ [D2V],1.85
24,HPPLYGKLFSTYLRPPHTSRGTSQ [D2P],2.8
25,HYPLYGKLFSTYLRPPHTSRGTSQ [D2Y],2.62
26,HQPLYGKLFSTYLRPPHTSRGTSQ [D2Q],2.44

row,Variant,protein stability index
1,HAPLYGKLFSTYLRPPHTSRGTSQ [D2A],2.37
2,HCPLYGKLFSTYLRPPHTSRGTSQ [D2C],2.28
3,HGPLYGKLFSTYLRPPHTSRGTSQ [D2G],2.56
4,HHPLYGKLFSTYLRPPHTSRGTSQ [D2H],2.19
5,HWPLYGKLFSTYLRPPHTSRGTSQ [D2W],2.86
6,HSPLYGKLFSTYLRPPHTSRGTSQ [D2S],2.5
7,HNPLYGKLFSTYLRPPHTSRGTSQ [D2N],2.1
8,HRPLYGKLFSTYLRPPHTSRGTSQ [D2R],2.63
9,HTPLYGKLFSTYLRPPHTSRGTSQ [D2T],1.98
10,HLPLYGKLFSTYLRPPHTSRGTSQ [D2L],2.34
11,HMPLYGKLFSTYLRPPHTSRGTSQ [D2M],1.91
12,HDWLYGKLFSTYLRPPHTSRGTSQ [P3W],2.03
13,HDVLYGKLFSTYLRPPHTSRGTSQ [P3V],2.76
14,HDQLYGKLFSTYLRPPHTSRGTSQ [P3Q],2.38
15,HDGLYGKLFSTYLRPPHTSRGTSQ [P3G],2.35
16,HDFLYGKLFSTYLRPPHTSRGTSQ [P3F],2.12
17,HDILYGKLFSTYLRPPHTSRGTSQ [P3I],2.29
18,HDLLYGKLFSTYLRPPHTSRGTSQ [P3L],2.25
19,HDELYGKLFSTYLRPPHTSRGTSQ [P3E],3.14
20,HDHLYGKLFSTYLRPPHTSRGTSQ [P3H],2.98
21,HDRLYGKLFSTYLRPPHTSRGTSQ [P3R],2.55
22,HDCLYGKLFSTYLRPPHTSRGTSQ [P3C],2.17
23,HDMLYGKLFSTYLRPPHTSRGTSQ [P3M],2.27
24,HDSLYGKLFSTYLRPPHTSRGTSQ [P3S],2.3
25,HDALYGKLFSTYLRPPHTSRGTSQ [P3A],2.5
26,HDDLYGKLFSTYLRPPHTSRGTSQ [P3D],3.02

row,Variant,protein stability index
1,HDYLYGKLFSTYLRPPHTSRGTSQ [P3Y],2.55
2,HDNLYGKLFSTYLRPPHTSRGTSQ [P3N],2.44
3,HDKLYGKLFSTYLRPPHTSRGTSQ [P3K],2.54
4,HDTLYGKLFSTYLRPPHTSRGTSQ [P3T],2.7
5,HDPHYGKLFSTYLRPPHTSRGTSQ [L4H],3.22
6,HDPQYGKLFSTYLRPPHTSRGTSQ [L4Q],2.03
7,HDPWYGKLFSTYLRPPHTSRGTSQ [L4W],2.98
8,HDPSYGKLFSTYLRPPHTSRGTSQ [L4S],3.35
9,HDPPYGKLFSTYLRPPHTSRGTSQ [L4P],3.28
10,HDPDYGKLFSTYLRPPHTSRGTSQ [L4D],3.74
11,HDPKYGKLFSTYLRPPHTSRGTSQ [L4K],1.9
12,HDPCYGKLFSTYLRPPHTSRGTSQ [L4C],3.28
13,HDPFYGKLFSTYLRPPHTSRGTSQ [L4F],3.22
14,HDPNYGKLFSTYLRPPHTSRGTSQ [L4N],2.28
15,HDPEYGKLFSTYLRPPHTSRGTSQ [L4E],3.46
16,HDPMYGKLFSTYLRPPHTSRGTSQ [L4M],3.29
17,HDPVYGKLFSTYLRPPHTSRGTSQ [L4V],2.66
18,HDPYYGKLFSTYLRPPHTSRGTSQ [L4Y],2.69
19,HDPIYGKLFSTYLRPPHTSRGTSQ [L4I],2.04
20,HDPAYGKLFSTYLRPPHTSRGTSQ [L4A],2.32
21,HDPGYGKLFSTYLRPPHTSRGTSQ [L4G],3.3
22,HDPRYGKLFSTYLRPPHTSRGTSQ [L4R],1.58
23,HDPTYGKLFSTYLRPPHTSRGTSQ [L4T],2.87
24,HDPLAGKLFSTYLRPPHTSRGTSQ [Y5A],2.94
25,HDPLCGKLFSTYLRPPHTSRGTSQ [Y5C],3.69

# Variants of: B2
# Assay: as above
# Settings: c terminus: a fixed tail appended
row,Variant,protein stability index
1,TTKCVRQYEGHVNEYAYLPMHVHE [L20M],2.63
2,TTKCVRQYEGHVNEYAYLPDHVHE [L20D],3.64
3,TTKCVRQYEGHVNEYAYLPKHVHE [L20K],2.8
4,TTKCVRQYEGHVNEYAYLPNHVHE [L20N],3.1
5,TTKCVRQYEGHVNEYAYLPPHVHE [L20P],3.31
6,TTKCVRQYEGHVNEYAYLPVHVHE [L20V],2.44
7,TTKCVRQYEGHVNEYAYLPWHVHE [L20W],2.33
8,TTKCVRQYEGHVNEYAYLPFHVHE [L20F],2.35
9,TTKCVRQYEGHVNEYAYLPTHVHE [L20T],2.85
10,TTKCVRQYEGHVNEYAYLPRHVHE [L20R],3.21
11,TTKCVRQYEGHVNEYAYLPIHVHE [L20I],2.74
12,TTKCVRQYEGHVNEYAYLPCHVHE [L20C],2.67
13,TTKCVRQYEGHVNEYAYLPGHVHE [L20G],2.41
14,TTKCVRQYEGHVNEYAYLPQHVHE [L20Q],3.06
15,TTKCVRQYEGHVNEYAYLPAHVHE [L20A],2.78
16,TTKCVRQYEGHVNEYAYLPHHVHE [L20H],3
17,TTKCVRQYEGHVNEYAYLPEHVHE [L20E],3.53
